Test results: ChEMBL document CHEMBL2074511, “Molecular cloning and pharmacological characterization of rat multidrug resistance protein 1 (mrp1)” (Drug Metab Dispos, 2003)

Substrate: CCCCC/C=C\C\C=C/C=C/C=C/[C@@H](SC[C@@H](NC(=O)CC[C@H](N)C(=O)O)C(=O)NCC(=O)O)[C@@H](O)CCCC(=O)O
Experiment: cells, lysate or membranes named

B1: Multidrug resistance-associated protein 1 (Mus musculus) (protein)
chain: MALRSFCSADGSDPLWDWNVTWHTSNPDFTKCFQNTVLTWVPCFYLWSCFPLYFFYLSRHDRGYIQMTHLNKTKTALGFFLWIICWADLFYSFWERSQGVLRAPVLLVSPTLLGITMLLATFLIQLERRKGVQSSGIMLTFWLVALLCALAILRSKIISALKKDAHVDVFRDSTFYLYFTLVLVQLVLSCFSDCSPLFSETVHDRNPCPESSASFLSRITFWWITGMMVHGYRQPLESSDLWSLNKEDTSEEVVPVLVNNWKKECDKSRKQPVRIVYAPPKDPSKPKGSSQLDVNEEVEALIVKSPHKDREPSLFKVLYKTFGPYFLMSFLYKALHDLMMFAGPKILELIINFVNDREAPDWQGYFYTALLFVSACLQTLALHQYFHICFVSGMRIKTAVVGAVYRKALLITNAARKSSTVGEIVNLMSVDAQRFMDLATYINMIWSAPLQVILALYFLWLSLGPSVLAGVAVMILMVPLNAVMAMKTKTYQVAHMKSKDNRIKLMNEILNGIKVLKLYAWELAFQDKVMSIRQEELKVLKKSAYLAAVGTFTWVCTPFLVALSTFAVFVTVDERNILDAKKAFVSLALFNILRFPLNILPMVISSIVQASVSLKRLRIFLSHEELEPDSIERRSIKSGEGNSITVKNATFTWARGEPPTLNGITFSIPEGALVAVVGQVGCGKSSLLSALLAEMDKVEGHVTLKGSVAYVPQQAWIQNDSLRENILFGHPLQENYYKAVMEACALLPDLEILPSGDRTEIGEKGVNLSGGQKQRVSLARAVYSNSDIYLFDDPLSAVDAHVGKHIFEKVVGPMGLLKNKTRILVTHGISYLPQVDVIIVMSGGKISEMGSYQELLDRDGAFAEFLRTYANAEQDLASEDDSVSGSGKESKPVENGMLVTDTVGKHLQRHLSNSSSHSGDTSQQHSSIAELQKAGAKEETWKLMEADKAQTGQVQLSVYWNYMKAIGLFITFLSIFLFLCNHVSALASNYWLSLWTDDPPVVNGTQANRNFRLSVYGALGILQGAAIFGYSMAVSIGGIFASRRLHLDLLYNVLRSPMSFFERTPSGNLVNRFSKELDTVDSMIPQVIKMFMGSLFSVIGAVIIILLATPIAAVIIPPLGLVYFFVQRFYVASSRQLKRLESVSRSPVYSHFNETLLGVSVIRAFEEQERFIHQSDLKVDENQKAYYPSIVANRWLAVRLECVGNCIVLFAALFAVISRHSLSAGLVGLSVSYSLQITAYLNWLVRMSSEMETNIVAVERLKEYSETEKEAPWQIQETAPPSTWPHSGRVEFRDYCLRYREDLDLVLKHINVTIEGGEKVGIVGRTGAGKSSLTLGLFRINESAEGEIIIDGVNIAKIGLHNLRFKITIIPQDPVLFSGSLRMNLDPFSQYSDEEVWMALELAHLKGFVSALPDKLNHECAEGGENLSVGQRQLVCLARALLRKTKILVLDEATAAVDLETDNLIQSTIRTQFEDCTVLTIAHRLNTIMDYTRVIVLDKGEVRECGAPSELLQQRGIFYSMAKDAGLV
Km: 0.05 µM
